# Laboratory results: article PMC7619462
# T1: NPR-33 (C. elegans) (UniProt O62189)
# T1 sequence: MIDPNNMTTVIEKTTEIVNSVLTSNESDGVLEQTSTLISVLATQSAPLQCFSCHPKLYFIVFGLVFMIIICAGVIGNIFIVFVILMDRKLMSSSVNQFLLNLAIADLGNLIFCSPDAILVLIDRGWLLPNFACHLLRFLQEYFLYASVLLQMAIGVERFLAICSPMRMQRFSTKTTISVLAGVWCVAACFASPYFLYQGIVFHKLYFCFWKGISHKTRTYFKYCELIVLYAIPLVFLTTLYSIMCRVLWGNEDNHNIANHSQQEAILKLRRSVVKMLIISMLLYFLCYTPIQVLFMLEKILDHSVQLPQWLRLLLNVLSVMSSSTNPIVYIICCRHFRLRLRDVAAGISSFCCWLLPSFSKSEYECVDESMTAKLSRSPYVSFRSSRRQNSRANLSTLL
# Experiments:
# [1] = biological target: T1, NPR-33 (C. elegans)
# [2] = biological target: NPR-44 (C. elegans) (UniProt Q9N5L5)
# UniProt Q9N5L5, sequence (Q9N5L5 entry or part of it): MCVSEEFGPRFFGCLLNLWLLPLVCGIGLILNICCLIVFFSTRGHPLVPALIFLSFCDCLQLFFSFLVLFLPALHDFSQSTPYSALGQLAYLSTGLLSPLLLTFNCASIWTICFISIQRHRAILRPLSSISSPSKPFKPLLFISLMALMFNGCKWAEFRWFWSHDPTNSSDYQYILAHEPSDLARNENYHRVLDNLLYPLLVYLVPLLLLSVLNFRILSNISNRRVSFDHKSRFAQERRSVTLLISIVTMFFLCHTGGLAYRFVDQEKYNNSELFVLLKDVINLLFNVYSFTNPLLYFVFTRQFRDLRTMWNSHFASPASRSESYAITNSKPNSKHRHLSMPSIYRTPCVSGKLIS
binder,measurement,setting,value
WYEWNNDMEIT [NLP-70-1],"EC50 of receptor activation: calcium mobilization (aequorin) in CHO cells co-expressing the GPCR and Gα16, concentration-response curve, n = 6",[1],1160 nM
WYDWQNVPHALQQ [NLP-70-2],"EC50 of receptor activation: calcium mobilization (aequorin) in CHO cells co-expressing the GPCR and Gα16, concentration-response curve, n = 6; also significant calcium response at 10 μM",[1],76.3 nM
LHRIGGNIVM [NLP-69-1],"EC50 of receptor activation: calcium mobilization (aequorin) in CHO cells co-expressing the GPCR and Gα16, concentration-response curve, n = 6; also significant calcium response at 10 μM",[2],232 nM
